Assay results reported in paper PMC10786891, “Massively parallel profiling of RNA-targeting CRISPR-Cas13d”.

T1: EsCas13d, nuclease-dead (Eubacterium siraeum, UniProt B0MS50, R295A;H300A;R849A;H854A)
T1 sequence: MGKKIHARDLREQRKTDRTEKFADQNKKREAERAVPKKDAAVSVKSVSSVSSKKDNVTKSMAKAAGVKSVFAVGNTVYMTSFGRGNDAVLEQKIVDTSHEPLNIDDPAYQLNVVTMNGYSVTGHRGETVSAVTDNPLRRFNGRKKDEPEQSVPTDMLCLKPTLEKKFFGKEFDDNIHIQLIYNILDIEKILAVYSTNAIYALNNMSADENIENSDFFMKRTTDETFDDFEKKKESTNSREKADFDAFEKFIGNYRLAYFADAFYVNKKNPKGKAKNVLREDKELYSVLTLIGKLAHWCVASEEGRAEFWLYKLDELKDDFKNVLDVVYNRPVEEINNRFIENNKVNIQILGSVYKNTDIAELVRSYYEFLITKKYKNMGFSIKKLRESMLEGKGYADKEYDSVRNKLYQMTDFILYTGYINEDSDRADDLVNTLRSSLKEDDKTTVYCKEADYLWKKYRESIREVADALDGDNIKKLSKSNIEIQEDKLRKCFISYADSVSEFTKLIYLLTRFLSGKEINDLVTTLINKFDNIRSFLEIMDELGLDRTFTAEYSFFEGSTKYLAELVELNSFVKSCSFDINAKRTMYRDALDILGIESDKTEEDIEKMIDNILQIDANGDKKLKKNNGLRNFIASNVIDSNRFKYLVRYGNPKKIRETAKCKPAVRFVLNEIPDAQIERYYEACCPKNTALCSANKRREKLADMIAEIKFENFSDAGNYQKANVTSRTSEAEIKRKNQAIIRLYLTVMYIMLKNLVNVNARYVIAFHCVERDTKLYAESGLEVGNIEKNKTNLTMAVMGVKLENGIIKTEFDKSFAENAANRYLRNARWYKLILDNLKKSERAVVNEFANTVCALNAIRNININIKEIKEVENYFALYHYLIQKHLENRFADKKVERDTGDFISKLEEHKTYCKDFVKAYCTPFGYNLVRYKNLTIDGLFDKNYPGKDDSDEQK


target: T1, EsCas13d, nuclease-dead; experiment: crRNA (strand 1, pre-loaded); Mg2+; 40 mM Tris-HCl pH 7.5, 150 mM NaCl, 6 mM MgCl2, 1 mM DTT, 0.1% Tween-20, 0.2 mg/ml BSA; 25 C; 10 min per concentration, then washed; conditions: tags: His6-TwinStrep-SUMO cleaved; N-terminal SNAP kept (SNAP-Surface 488); label: 3' end held by stalled T7 RNA polymerase

Binder | Kd
target 2 MT 5'PFS CUU 3'PFS AGG (mixed) RNA 1: CACCCGUGCAAAAUUGCAGGGGUCUAAAACCUUCUCCAAAUUGUUUCAUCCU RNA 2: GGGAAUGGAUCCACAUCUACGAAUUCCUUAGGAUGAAACAAUUUGGAGAAGAGGAGAUCGGAAGAGCACACGU | 2.4 ± 0.4 nM
target 2 MT 5'PFS GAG 3'PFS CCG (mixed) RNA 1: CACCCGUGCAAAAUUGCAGGGGUCUAAAACCUUCUCCAAAUUGUUUCAUCCU RNA 2: GGGAAUGGAUCCACAUCUACGAAUUCGAGAGGAUGAAACAAUUUGGAGAAGCCGAGAUCGGAAGAGCACACGU | 6.77 ± 0.3 nM
target 2 MT 5'PFS GAG 3'PFS CCU (mixed) RNA 1: CACCCGUGCAAAAUUGCAGGGGUCUAAAACCUUCUCCAAAUUGUUUCAUCCU RNA 2: GGGAAUGGAUCCACAUCUACGAAUUCGAGAGGAUGAAACAAUUUGGAGAAGCCUAGAUCGGAAGAGCACACGU | ~130 nM
target 2 MT 5'PFS AAG 3'PFS CUG (mixed) RNA 1: CACCCGUGCAAAAUUGCAGGGGUCUAAAACCUUCUCCAAAUUGUUUCAUCCU RNA 2: GGGAAUGGAUCCACAUCUACGAAUUCAAGAGGAUGAAACAAUUUGGAGAAGCUGAGAUCGGAAGAGCACACGU | 4.9 ± 0.7 nM
target 2 MT 5'PFS AAG 3'PFS CUA (mixed) RNA 1: CACCCGUGCAAAAUUGCAGGGGUCUAAAACCUUCUCCAAAUUGUUUCAUCCU RNA 2: GGGAAUGGAUCCACAUCUACGAAUUCAAGAGGAUGAAACAAUUUGGAGAAGCUAAGAUCGGAAGAGCACACGU | 4.4 ± 0.6 nM
target 2 MT 5'PFS GUG 3'PFS AAA (mixed) RNA 1: CACCCGUGCAAAAUUGCAGGGGUCUAAAACCUUCUCCAAAUUGUUUCAUCCU RNA 2: GGGAAUGGAUCCACAUCUACGAAUUCGUGAGGAUGAAACAAUUUGGAGAAGAAAAGAUCGGAAGAGCACACGU | 9.7 ± 1.4 nM
target 2 MT 5'PFS GAG 3'PFS CCA (mixed) RNA 1: CACCCGUGCAAAAUUGCAGGGGUCUAAAACCUUCUCCAAAUUGUUUCAUCCU RNA 2: GGGAAUGGAUCCACAUCUACGAAUUCGAGAGGAUGAAACAAUUUGGAGAAGCCAAGAUCGGAAGAGCACACGU | 17.2 ± 2.6 nM
target 2 MT 5'PFS CUU 3'PFS CGC (mixed) RNA 1: CACCCGUGCAAAAUUGCAGGGGUCUAAAACCUUCUCCAAAUUGUUUCAUCCU RNA 2: GGGAAUGGAUCCACAUCUACGAAUUCCUUAGGAUGAAACAAUUUGGAGAAGCGCAGAUCGGAAGAGCACACGU | 5 ± 0.4 nM
target 2 MT 5'PFS CUU 3'PFS AGU (mixed) RNA 1: CACCCGUGCAAAAUUGCAGGGGUCUAAAACCUUCUCCAAAUUGUUUCAUCCU RNA 2: GGGAAUGGAUCCACAUCUACGAAUUCCUUAGGAUGAAACAAUUUGGAGAAGAGUAGAUCGGAAGAGCACACGU | 3.1 ± 0.4 nM
target 2 MT 5'PFS UAA 3'PFS UAC (mixed) RNA 1: CACCCGUGCAAAAUUGCAGGGGUCUAAAACCUUCUCCAAAUUGUUUCAUCCU RNA 2: GGGAAUGGAUCCACAUCUACGAAUUCUAAAGGAUGAAACAAUUUGGAGAAGUACAGAUCGGAAGAGCACACGU | 7.1 ± 1.6 nM
target 2 MT 5'PFS UCU 3'PFS UCC (mixed) RNA 1: CACCCGUGCAAAAUUGCAGGGGUCUAAAACCUUCUCCAAAUUGUUUCAUCCU RNA 2: GGGAAUGGAUCCACAUCUACGAAUUCUCUAGGAUGAAACAAUUUGGAGAAGUCCAGAUCGGAAGAGCACACGU | 7.2 ± 0.7 nM
target 2 MT 5'PFS ACG 3'PFS UAG (mixed) RNA 1: CACCCGUGCAAAAUUGCAGGGGUCUAAAACCUUCUCCAAAUUGUUUCAUCCU RNA 2: GGGAAUGGAUCCACAUCUACGAAUUCACGAGGAUGAAACAAUUUGGAGAAGUAGAGAUCGGAAGAGCACACGU | 4.6 ± 1.1 nM
target 2 MT 5'PFS AGU 3'PFS AAG (mixed) RNA 1: CACCCGUGCAAAAUUGCAGGGGUCUAAAACCUUCUCCAAAUUGUUUCAUCCU RNA 2: GGGAAUGGAUCCACAUCUACGAAUUCAGUAGGAUGAAACAAUUUGGAGAAGAAGAGAUCGGAAGAGCACACGU | 11 ± 2.4 nM
target 2 MT 5'PFS UGA 3'PFS AGA (mixed) RNA 1: CACCCGUGCAAAAUUGCAGGGGUCUAAAACCUUCUCCAAAUUGUUUCAUCCU RNA 2: GGGAAUGGAUCCACAUCUACGAAUUCUGAAGGAUGAAACAAUUUGGAGAAGAGAAGAUCGGAAGAGCACACGU | 5.4 ± 0.5 nM
target 2 MT 5'PFS GCC 3'PFS AUC (mixed) RNA 1: CACCCGUGCAAAAUUGCAGGGGUCUAAAACCUUCUCCAAAUUGUUUCAUCCU RNA 2: GGGAAUGGAUCCACAUCUACGAAUUCGCCAGGAUGAAACAAUUUGGAGAAGAUCAGAUCGGAAGAGCACACGU | 12.7 ± 1.1 nM
target 2 MT 5'PFS UAU 3'PFS UCG (mixed) RNA 1: CACCCGUGCAAAAUUGCAGGGGUCUAAAACCUUCUCCAAAUUGUUUCAUCCU RNA 2: GGGAAUGGAUCCACAUCUACGAAUUCUAUAGGAUGAAACAAUUUGGAGAAGUCGAGAUCGGAAGAGCACACGU | 27.2 ± 3.2 nM
target 2 MT 5'PFS GUG 3'PFS AAU (mixed) RNA 1: CACCCGUGCAAAAUUGCAGGGGUCUAAAACCUUCUCCAAAUUGUUUCAUCCU RNA 2: GGGAAUGGAUCCACAUCUACGAAUUCGUGAGGAUGAAACAAUUUGGAGAAGAAUAGAUCGGAAGAGCACACGU | 8.6 ± 1 nM
target 2 MT 5'PFS AGU 3'PFS AAU (mixed) RNA 1: CACCCGUGCAAAAUUGCAGGGGUCUAAAACCUUCUCCAAAUUGUUUCAUCCU RNA 2: GGGAAUGGAUCCACAUCUACGAAUUCAGUAGGAUGAAACAAUUUGGAGAAGAAUAGAUCGGAAGAGCACACGU | 7.6 ± 1 nM
target 2 MT 5'PFS AAG 3'PFS CUC (mixed) RNA 1: CACCCGUGCAAAAUUGCAGGGGUCUAAAACCUUCUCCAAAUUGUUUCAUCCU RNA 2: GGGAAUGGAUCCACAUCUACGAAUUCAAGAGGAUGAAACAAUUUGGAGAAGCUCAGAUCGGAAGAGCACACGU | 10 ± 1.6 nM
target 2 MT 5'PFS CUU 3'PFS CGA (mixed) RNA 1: CACCCGUGCAAAAUUGCAGGGGUCUAAAACCUUCUCCAAAUUGUUUCAUCCU RNA 2: GGGAAUGGAUCCACAUCUACGAAUUCCUUAGGAUGAAACAAUUUGGAGAAGCGAAGAUCGGAAGAGCACACGU | 3.4 ± 0.4 nM
target 2 MT 5'PFS UAA 3'PFS UAA (mixed) RNA 1: CACCCGUGCAAAAUUGCAGGGGUCUAAAACCUUCUCCAAAUUGUUUCAUCCU RNA 2: GGGAAUGGAUCCACAUCUACGAAUUCUAAAGGAUGAAACAAUUUGGAGAAGUAAAGAUCGGAAGAGCACACGU | 4.8 ± 1.3 nM
target 2 MT 5'PFS GUG 3'PFS AAC (mixed) RNA 1: CACCCGUGCAAAAUUGCAGGGGUCUAAAACCUUCUCCAAAUUGUUUCAUCCU RNA 2: GGGAAUGGAUCCACAUCUACGAAUUCGUGAGGAUGAAACAAUUUGGAGAAGAACAGAUCGGAAGAGCACACGU | 10.5 ± 1.6 nM
target 2 MT 5'PFS CUU 3'PFS CGG (mixed) RNA 1: CACCCGUGCAAAAUUGCAGGGGUCUAAAACCUUCUCCAAAUUGUUUCAUCCU RNA 2: GGGAAUGGAUCCACAUCUACGAAUUCCUUAGGAUGAAACAAUUUGGAGAAGCGGAGAUCGGAAGAGCACACGU | 2.9 ± 0.4 nM
target 2 MT 5'PFS AAA 3'PFS AAA (mixed) RNA 1: CACCCGUGCAAAAUUGCAGGGGUCUAAAACCUUCUCCAAAUUGUUUCAUCCU RNA 2: GGGAAUGGAUCCACAUCUACGAAUUCAAAAGGAUGAAACAAUUUGGAGAAGAAAAGAUCGGAAGAGCACACGU | 4.9 ± 1.3 nM
target 2 MT 5'PFS GUG 3'PFS AAG (mixed) RNA 1: CACCCGUGCAAAAUUGCAGGGGUCUAAAACCUUCUCCAAAUUGUUUCAUCCU RNA 2: GGGAAUGGAUCCACAUCUACGAAUUCGUGAGGAUGAAACAAUUUGGAGAAGAAGAGAUCGGAAGAGCACACGU | 12.4 ± 1.8 nM
target 1 G13U,G15A (mixed) RNA 1: CACCCGUGCAAAAAUGCAGGGGUCUAAAACUGAGCGGAUAACCUCUCUAUGG RNA 2: GGGAAUGGAUCCACAUCUACGAAUUCGUACCAUAGAAAUGUUAUCCGCUCACCGAGAUCGGAAGAGCACACGU | 22 ± 4 nM
target 1 insG 3' of 19,insA 3' of 11 (mixed) RNA 1: CACCCGUGCAAAAAUGCAGGGGUCUAAAACUGAGCGGAUAACCUCUCUAUGG RNA 2: GGGAAUGGAUCCACAUCUACGAAUUCGUACCAUGAGAGAGGUAUAUCCGCUCACCGAGAUCGGAAGAGCACACGU | 89 ± 16 nM
target 1 insC 3' of 9,insA 3' of 2 (mixed) RNA 1: CACCCGUGCAAAAAUGCAGGGGUCUAAAACUGAGCGGAUAACCUCUCUAUGG RNA 2: GGGAAUGGAUCCACAUCUACGAAUUCGUACCAUAGAGAGGUUACUCCGCUCAACCGAGAUCGGAAGAGCACACGU | 12.3 ± 0.7 nM
